Laboratory results reported in paper PMC5715260.
Values belong to the substance of their own block, whether it stands above or below them.

Columns and labels:
Experiment in all cases: high performance liquid chromatography; mass of the native TTR compared with the subunit mass; data not shown
[1] = target: pigC/crocTTR (Crocodylus porosus TTR with the C-terminal sequence changed to that of S. scrofa TTR) (Crocodylus porosus | Sus scrofa) (UniProt O55245)
[2] = target: xenoN/pigC/huTTR (human TTR with the N-terminal and C-terminal sequences changed to those of Xenopus laevis and S. scrofa, respectively) (Xenopus laevis | human | Sus scrofa) (UniProt B7ZS96)
[3] = target: pigC/huTTR (human TTR with the C-terminal sequence changed to that of Sus scrofa TTR) (human | Sus scrofa)

Sequence of xenoN/pigC/huTTR (human TTR with the N-terminal and C-terminal sequences changed to those of Xenopus laevis and S. scrofa, respectively) (P50390 whole entry, looked up): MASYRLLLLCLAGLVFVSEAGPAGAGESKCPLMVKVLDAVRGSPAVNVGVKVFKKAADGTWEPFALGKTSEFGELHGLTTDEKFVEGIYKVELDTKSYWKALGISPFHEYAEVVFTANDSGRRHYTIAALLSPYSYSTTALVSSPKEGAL
Sequence of xenoN/pigC/huTTR (human TTR with the N-terminal and C-terminal sequences changed to those of Xenopus laevis and S. scrofa, respectively) (B7ZS96 whole entry, looked up): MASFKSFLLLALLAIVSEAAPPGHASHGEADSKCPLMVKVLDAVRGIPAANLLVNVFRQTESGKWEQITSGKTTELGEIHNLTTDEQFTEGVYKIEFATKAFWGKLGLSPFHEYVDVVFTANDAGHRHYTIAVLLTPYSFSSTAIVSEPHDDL
Sequence of pigC/huTTR (human TTR with the C-terminal sequence changed to that of Sus scrofa TTR) (P50390 whole entry): as the sequence (P50390 whole entry, looked up) above

stoichiometry N [1]: 4
Substance: pigC/crocTTR (Crocodylus porosus TTR with the C-terminal sequence changed to that of S. scrofa TTR) (from UniProt O55245 21-114; P50390 135-150)

stoichiometry N [2]: 4
Substance: xenoN/pigC/huTTR (human TTR with the N-terminal and C-terminal sequences changed to those of Xenopus laevis and S. scrofa, respectively) (from UniProt B7ZS96 1-9; P50390 141-150)

stoichiometry N [3]: 4
Substance: pigC/huTTR (human TTR with the C-terminal sequence changed to that of Sus scrofa TTR) (from UniProt P50390 141-150)
